# Test results from FireProtDB.
# Changes are numbered by the printed parent chain. “And” between values parts separate entries of the source, which are not always exact repeats. Identical values can stand only once.
# B1: Cyclin-dependent kinase 4 inhibitor D wild type, P55273 (protein)
# chain: MLLEEVRAGDRLSGAAARGDVQEVRRLLHRELVHPDALNRFGKTALQVMMFGSTAIALELLKQGASPNVQDTSGTSPVHDAARTGFLDTLKVLVEHGADVNVPDGTGALPIHLAVQEGHTAVVSFLAAESDLHRRDARGLTPLELALQRGAQDLVDILQGHMVAPL
# B2: Cyclin-dependent kinase inhibitor 2A wild type, P42771 (protein)
# chain: MEPAAGSSMEPSADWLATAAARGRVEEVRALLEAGALPNAPNSYGRRPIQVMMMGSARVAELLLLHGAEPNCADPATLTRPVHDAAREGFLDTLVVLHRAGARLDVRDAWGRLPVDLAEELGHRDVARYLRAAAGGTRGSNHARIDAAEGPSDIPD
# B3: Superoxide dismutase [Mn], mitochondrial wild type, P04179 (protein)
# chain: MLSRAVCGTSRQLAPVLGYLGSRQKHSLPDLPYDYGALEPHINAQIMQLHHSKHHAAYVNNLNVTEEKYQEALAKGDVTAQIALQPALKFNGGGHINHSIFWTNLSPNGGGEPKGELLEAIKRDFGSFDKFKEKLTAASVGVQGSGWGWLGFNKERGHLQIAACPNQDPLQGTTGLIPLLGIDVWEHAYYLQYKNVRPDYLKAIWNVINWENVTERYMACKK
# B4: Sphingosine kinase 1 wild type, Q9NYA1 (protein)
# chain: MDPAGGPRGVLPRPCRVLVLLNPRGGKGKALQLFRSHVQPLLAEAEISFTLMLTERRNHARELVRSEELGRWDALVVMSGDGLMHEVVNGLMERPDWETAIQKPLCSLPAGSGNALAASLNHYAGYEQVTNEDLLTNCTLLLCRRLLSPMNLLSLHTASGLRLFSVLSLAWGFIADVDLESEKYRRLGEMRFTLGTFLRLAALRTYRGRLAYLPVGRVGSKTPASPVVVQQGPVDAHLVPLEEPVPSHWTVVPDEDFVLVLALLHSHLGSEMFAAPMGRCAAGVMHLFYVRAGVSRAMLLRLFLAMEKGRHMEYECPYLVYVPVVAFRLEPKDGKGVFAVDGELMVSEAVQGQVHPNYFWMVSGCVEPPPSWKPQQMPPPEEPL
# B5: Annexin A5 wild type, P08758 (protein)
# chain: MAQVLRGTVTDFPGFDERADAETLRKAMKGLGTDEESILTLLTSRSNAQRQEISAAFKTLFGRDLLDDLKSELTGKFEKLIVALMKPSRLYDAYELKHALKGAGTNEKVLTEIIASRTPEELRAIKQVYEEEYGSSLEDDVVGDTSGYYQRMLVVLLQANRDPDAGIDEAQVEQDAQALFQAGELKWGTDEEKFITIFGTRSVSHLRKVFDKYMTISGFQIEETIDRETSGNLEQLLLAVVKSIRSIPAYLAETLYYAMKGAGTDDHTLIRVMVSRSEIDLFNIRKEFRKNFATSLYSMIKGDTSGDYKKALLLLCGEDD
# B6: Cystatin-A wild type, P01040 (protein)
# chain: MIPGGLSEAKPATPEIQEIVDKVKPQLEEKTNETYGKLEAVQYKTQVVAGTNYYIKVRAGDNKYMHLKVFKSLPGQNEDLVLTGYQVDKNKDDELTGF
# B7: wild type, Q40059 (protein)
# chain: MSSMEKKPEGVNIGAGDRQNQKTEWPELVGKSVEEAKKVILQDKPAAQIIVLPVGTIVTMEYRIDRVRLFVDRLDNIAQVPRVG
# B8: Subtilisin-chymotrypsin inhibitor-2A wild type, P01053 (protein)
# chain: B7 chain with M4V, I13T, Q19H, Q21L, A46E, R73K
# Details: whole UniProt chain shown
# [1] = Homo sapiens, pH 7.5, 25 °C, Urea, CD, HEPES 20 mM, NaCl 100 mM, reversible: no
# [2] = Homo sapiens, pH 7.5, 25 °C, Urea, CD, Sodium phosphate 15 mM, NaCl 100 mM, reversible: yes
# [3] = Homo sapiens, pH 7.8, Thermal, DSC, Potassium phosphate 2 mM, reversible: yes
# [4] = Homo sapiens, pH 8, 25 °C, GdnHCl, CD, Tris-Hcl, transition: 2
# [5] = Homo sapiens, pH 8, 25 °C, GdnHCl, fluorescence, Tris-Hcl, transition: 2
# [6] = Homo sapiens, pH 8, Thermal, CD, Tris-HCl 10 mM
# [7] = Homo sapiens, pH 8.1, Thermal, DSC, Tris-HCl 20 mM
# [8] = Hordeum vulgare, pH 6.3, 25 °C, GdnHCl, DSC, MES-NaOH 50 mM, reversible: yes
# [9] = Hordeum vulgare, pH 6.3, 25 °C, GdnHCl, Fluorescence, Sodium phosphate 20 mM
# [10] = Hordeum vulgare, pH 7, 25 °C, GdnHCl, CD, Sodium phosphate 10 mM, reversible: yes
# [11] = Hordeum vulgare, pH 7, 30 °C, GdnHCl, Fluorescence, MOPS 50 mM
# [12] = Hordeum vulgare, pH 7.4, 25 °C, GdnHCl, CD, Tris 50 mM
protein,measurement,setting,value
B1,denaturant midpoint (higher = more stable),"Homo sapiens, pH 7.5, 15 °C, Urea, CD, Na-phospahate 20 mM, reversible: yes",2.9 M
same,Tm,"Homo sapiens, pH 7.5, Thermal, CD, sodium phosphate 20 mM, reversible: yes",51.9 °C
B2,denaturant midpoint (higher = more stable),[1],2.74 M
same,unfolding free energy,[1],2.7 kcal/mol
same,unfolding free energy,"Homo sapiens, pH 7.5, 25 °C, Urea, CD, MOPS 10 mM, NaF 50 mM, reversible: Yes",2.3 kcal/mol
same,denaturant m value,[2],2 kcal/mol/M
same,denaturant midpoint (higher = more stable),[2],1.9 M
same,Tm,"Homo sapiens, pH 7.5, Thermal, CD, HEPES 50 mM, reversible: no",41.5 °C
B3,Tm,[3],70 °C
same,unfolding enthalpy (calorimetric),[3],142 kcal/mol
B4,denaturant m value,[4],0.42 kcal/mol/M
same,denaturant midpoint (higher = more stable),[4],2.86 M
same,unfolding free energy,[4],1.32 kcal/mol
same,denaturant m value,[5],0.6 kcal/mol/M
same,denaturant midpoint (higher = more stable),[5],2.94 M
same,unfolding free energy,[5],1.75 kcal/mol
B5,Tm,[6],51.9 °C
same,unfolding enthalpy (van 't Hoff),[6],166 kcal/mol
B6,Tm,[7],94.5 °C
same,heat capacity change of unfolding,[7],1.5 kcal/mol/K
same,unfolding enthalpy (calorimetric),[7],122 kcal/mol
B7,Tm,"Hordeum vulgare, pH 4.15, Thermal, CD, acetate 10 mM, reversible: no",74.3 °C
same,denaturant m value,[8],1.76 kcal/mol/M
same,denaturant midpoint (higher = more stable),[8],4.05 M
same,unfolding free energy,[8],7.16 kcal/mol
same,denaturant m value,[9],1.96 kcal/mol/M and 2.01 kcal/mol/M
same,unfolding free energy,[9],7.41 kcal/mol and 7.27 kcal/mol and 7.22 kcal/mol
B8,unfolding free energy,"Hordeum vulgare, pH 4.2, 50 °C, GdnHCl, Fluorescence, Sodium acetate 50 mM, reversible: yes",5.5 kcal/mol
same,unfolding free energy,"Hordeum vulgare, pH 6.3, 17 °C, GdnHCl, Fluorescence, MES 10 mM, reversible: yes",7.47 kcal/mol
same,unfolding free energy,"Hordeum vulgare, pH 6.3, 21 °C, GdnHCl, Fluorescence, MES 10 mM, reversible: yes",7.28 kcal/mol
same,unfolding free energy,"Hordeum vulgare, pH 6.3, 25 °C, GdnHCl, Fluorescence, MES 10 mM, reversible: yes",7.04 kcal/mol
same,unfolding free energy,"Hordeum vulgare, pH 6.3, 29 °C, GdnHCl, Fluorescence, MES 10 mM, reversible: yes",6.76 kcal/mol
same,unfolding free energy,"Hordeum vulgare, pH 6.3, 32 °C, GdnHCl, Fluorescence, MES 10 mM, reversible: yes",6.52 kcal/mol
same,denaturant m value,[10],1.77 kcal/mol/M
same,denaturant midpoint (higher = more stable),[10],3.97 M
same,unfolding free energy,[10],7.04 kcal/mol
same,denaturant m value,[11],1.92 kcal/mol/M
same,unfolding free energy,[11],7.05 kcal/mol
same,denaturant m value,[12],1.82 kcal/mol/M
same,denaturant midpoint (higher = more stable),[12],4.29 M
same,unfolding free energy,[12],7.81 kcal/mol
